Measurements from publication PMC8911475, “Insight into the Phylogeny and Binding Ability of WRKY Transcription Factors”.

Legend:
[1] = target: T1, WRKY54 DBD (Arabidopsis thaliana, UniProt Q93WU8 133-224); assay: QCM; QCM: 30 mM HEPES pH 7.5, 0.5 M NaCl, 2 mM TCEP, 25 °C, biotin-dsDNA on avidin; fEMSA: 30 min incubation in the dark, native PAGE 4 °C 120 V 90 min, buffer not stated; conditions: protein: recombinant; tags: N-term MBP + thrombin site; C-term 12xHis; label: 5' fluorescein (fEMSA); 5' biotin (QCM)
T1 sequence: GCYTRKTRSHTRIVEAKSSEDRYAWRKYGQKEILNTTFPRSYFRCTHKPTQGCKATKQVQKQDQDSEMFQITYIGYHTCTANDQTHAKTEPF

[2] = target: T1, WRKY54 DBD; assay: QCM; text also gives 68 ± 11.73 pM for T13 (inconsistent); QCM: 30 mM HEPES pH 7.5, 0.5 M NaCl, 2 mM TCEP, 25 °C, biotin-dsDNA on avidin; fEMSA: 30 min incubation in the dark, native PAGE 4 °C 120 V 90 min, buffer not stated; conditions: protein: recombinant; tags: N-term MBP + thrombin site; C-term 12xHis; label: 5' fluorescein (fEMSA); 5' biotin (QCM)
[3] = target: T1, WRKY54 DBD; assay: EMSA; QCM: 30 mM HEPES pH 7.5, 0.5 M NaCl, 2 mM TCEP, 25 °C, biotin-dsDNA on avidin; fEMSA: 30 min incubation in the dark, native PAGE 4 °C 120 V 90 min, buffer not stated; conditions: protein: recombinant, tags: N-term MBP + thrombin site, C-term 12xHis
[4] = label: 5' fluorescein (fEMSA), 5' biotin (QCM)

B1: W4 (dsDNA)
DNA 1: ATTTGTTGACTAGG
DNA 2: CCTAGTCAACAAAT
In the case of B1, the Kd [1] is reported as 0.163 ± 0.0101 nM.

B2: T13 (dsDNA)
DNA 1: ATTTGTTGACTAG
DNA 2: CTAGTCAACAAAT
In the case of B2, the Kd [2] is reported as 0.192 ± 0.0225 nM.

B3: T10 (dsDNA)
DNA 1: GTTGACTAGG
DNA 2: CCTAGTCAAC
B3: no binding [3, 4].

B4: T8 (dsDNA)
DNA 1: GTTGACTA
DNA 2: TAGTCAAC
B4: no binding [3, 4].

B5: T6 (dsDNA)
DNA 1: TTGACT
DNA 2: AGTCAA
B5: no binding [3, 4].

B6: W1 (dsDNA)
DNA 1: TGTCCTTGACTACA
DNA 2: TGTAGTCAAGGACA
B6: no binding ([3]; label: 5' fluorescein).

B7: W2 (dsDNA)
DNA 1: GTTATTTGACCACC
DNA 2: GGTGGTCAAATAAC
B7: no binding ([3]; label: 5' fluorescein).

B8: W3 (dsDNA)
DNA 1: TTAACTTGACCCAA
DNA 2: TTGGGTCAAGTTAA
B8: no binding ([3]; label: 5' fluorescein).

B9: T12 (dsDNA)
DNA 1: ATTTGTTGACTA
DNA 2: TAGTCAACAAAT
B9 gave a Kd [1] of 2.19 ± 0.442 nM.

B10: T12a (dsDNA)
DNA 1: TTGTTGACTAGG
DNA 2: CCTAGTCAACAA
B10 showed a Kd [1] of 0.047 ± 0.0062 nM.
